Measured values: patent publication US11844843 (DYNE THERAPEUTICS, dated 2023)
Positions count from the first letter of the chain named. Names and notes keep the numbering of the source.

T1: recombinant cynomolgus monkey (Macaca fascicularis) TfR1 (cynomolgus monkey (Macaca fascicularis), UniProt Q5RDH6 87-760 (Pongo abelii entry), limits assumed)
T1 construct: Recombinant protein; also called cTfR1; cyTfR1
T1 chain: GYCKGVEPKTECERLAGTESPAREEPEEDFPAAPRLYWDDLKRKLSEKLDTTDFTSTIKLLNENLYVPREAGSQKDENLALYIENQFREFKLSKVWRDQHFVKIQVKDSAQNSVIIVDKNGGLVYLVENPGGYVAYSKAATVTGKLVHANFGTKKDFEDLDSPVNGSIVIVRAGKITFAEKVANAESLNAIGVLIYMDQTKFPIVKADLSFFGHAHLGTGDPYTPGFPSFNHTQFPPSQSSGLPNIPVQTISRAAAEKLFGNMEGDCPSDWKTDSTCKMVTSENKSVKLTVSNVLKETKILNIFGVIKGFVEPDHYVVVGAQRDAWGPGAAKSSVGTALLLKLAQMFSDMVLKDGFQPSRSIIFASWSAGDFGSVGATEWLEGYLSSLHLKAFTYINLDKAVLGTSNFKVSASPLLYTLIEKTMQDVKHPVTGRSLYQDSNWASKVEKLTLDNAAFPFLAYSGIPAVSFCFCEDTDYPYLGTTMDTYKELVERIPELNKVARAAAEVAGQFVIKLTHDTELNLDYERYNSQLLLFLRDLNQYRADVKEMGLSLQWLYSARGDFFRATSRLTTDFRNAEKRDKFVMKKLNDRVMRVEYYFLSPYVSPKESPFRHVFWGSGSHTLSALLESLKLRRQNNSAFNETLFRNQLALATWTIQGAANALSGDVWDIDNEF

B1: humanized anti-TfR Fab 3A4 VH3 (N54T)/Vκ4 (Fab, V domains shown)
VH: EVQLVQSGSELKKPGASVKVSCTASGFNIKDDYMYWVRQPPGKGLEWIGWIDPETGDTEYASKFQDRVTVTADTSTNTAYMELSSLRSEDTAVYYCTLWLRRGLDYWGQGTLVTVSS
VL: DIVMTQSPLSLPVTPGEPASISCRSSKSLLHSNGYTYLFWFQQRPGQSPRLLIYRMSNLASGVPDRFSGSGSGTDFTLKISRVEAEDVGVYYCMQHLEYPFTFGGGTKVEIKR
notes: also called 3A4 (VH3-N54T/Vk4)
B2: humanized anti-TfR Fab 3A4 VH3 (N54S)/Vκ4 (Fab, V domains shown)
VH: B1 VH with T55S
VL: B1 VL
notes: also called 3A4 (VH3-N54S/Vk4)
B3: humanized anti-TfR Fab 5H12 VH5 (C33Y)/Vκ4 (Fab, V domains shown)
VH: QVQLVQSGAEVKKPGASVKVSCKASGYSFTDYYINWVRQAPGQGLEWMGWIYPGSGNTRYSERFKGRVTITRDTSASTAYMELSSLRSEDTAVYYCAREDYYPYHGMDYWGQGTLVTVSS
VL: DIVMTQSPDSLAVSLGERATINCRASESVDGYDNSFMHWYQQKPGQPPKLLIFRASNLESGVPDRFSGSGSGTDFTLTISSLQAEDVAVYYCQQSSEDPWTFGQGTKLEIKR
notes: also called 5H12 (VH5-C33Y/Vk4)
B4: humanized anti-TfR Fab 5H12 VH5 (C33Y)/Vκ3 (Fab, V domains shown)
VH: B3 VH
VL: B3 VL with M4L, G72R
notes: also called 5H12 (VH5-C33Y/Vk3)
B5: humanized anti-TfR Fab 3M12 VH3/Vκ2 (Fab, V domains shown)
VH: QVQLQESGPGLVKPSQTLSLTCSVTGYSITSGYYWNWIRQPPGKGLEWMGYITFDGANNYNPSLKNRVSISRDTSKNQFSLKLSSVTAEDTATYYCTRSSYDYDVLDYWGQGTTVTVSS
VL: DIQMTQSPSSLSASVGDRVTITCRASQDISNFLNWYQQKPGQPVKLLIYYTSRLHSGVPSRFSGSGSGTDFTLTISSLQPEDFATYFCQQGHTLPYTFGQGTKLEIKR
notes: also called 3M12 (VH3/Vk2)

Target: T1, recombinant cynomolgus monkey (Macaca …)
Experiment: ELISA on plate-coated recombinant cTfR1, fluorescent anti-(H+L) IgG-A488 detection, % normalized RFUs
Protocol: (§1) To measure binding of humanized anti-TfR antibodies to TfR1, ELISAs were conducted. High binding, black, flat bottom, 96 well plates (Corning #3925) were first coated with 100 μL/well of recombinant huTfR1 at 1 μg/mL in PBS and incubated at 4° C. overnight. Wells were emptied and residual liquid was removed. Blocking was conducted by adding 200 μL of 1% BSA (w/w) in PBS to each well. Blocking was allowed to proceed for 2 hours at room temperature on a shaker at 30) rpm. After blocking, liquid was removed and wells were washed three times with 300 μL of TBST. Anti-TfR1 antibodies were then added in 0.5% BSA/TBST in triplicate in an 8 point serial dilution (dilution range 5 μg/mL-5 ng/mL). A positive control and isotype controls were also included on the ELISA plate. The plate was incubated at room temperature on an orbital shaker for 60 minutes at 300 rpm, and the plate was washed three times with 300 μL of TBST. Anti-(H+L)IgG-A488 (1:500) (Invitrogen #A11013) was diluted in 0.5% BSA in TBST, and 100 μL was added to each well. The plate was then allowed to incubate at room temperature for 60 minutes at 300 rpm on orbital shaker. The liquid was removed and the plate was washed four times with 300 μL of TBST. Absorbance was then measured at 495 nm excitation and 50 nm emission (with a 15 nm bandwidth) on a plate reader. Data was recorded and analyzed for $EC50$. […]

| EC50 | Binder |
| --- | --- |
| > 100 nM | B1 |
| > 100 nM | B2 |

Target: T2, recombinant human TfR1 (transferrin receptor protein 1) (human, UniProt P02786 89-760)
T2 construct: Recombinant protein in SPR and ELISA; they were assigned to this molecule; also called hTfR1; huTfR1
Experiment: ELISA on plate-coated recombinant hTfR1, fluorescent anti-(H+L) IgG-A488 detection, % normalized RFUs
Protocol: To measure binding of humanized anti-TfR antibodies to TfR1, ELISAs were conducted. High binding, black, flat bottom, 96 well plates (Corning #3925) were first coated with 100 μL/well of recombinant huTfR1 at 1 μg/mL in PBS and incubated at 4° C. overnight. Wells were emptied and residual liquid was removed. Blocking was conducted by adding 200 μL of 1% BSA (w/w) in PBS to each well. Blocking was allowed to proceed for 2 hours at room temperature on a shaker at 30) rpm. After blocking, liquid was removed and wells were washed three times with 300 μL of TBST. Anti-TfR1 antibodies were then added in 0.5% BSA/TBST in triplicate in an 8 point serial dilution (dilution range 5 μg/mL-5 ng/mL). A positive control and isotype controls were also included on the ELISA plate. The plate was incubated at room temperature on an orbital shaker for 60 minutes at 300 rpm, and the plate was washed three times with 300 μL of TBST. Anti-(H+L)IgG-A488 (1:500) (Invitrogen #A11013) was diluted in 0.5% BSA in TBST, and 100 μL was added to each well. The plate was then allowed to incubate at room temperature for 60 minutes at 300 rpm on orbital shaker. The liquid was removed and the plate was washed four times with 300 μL of TBST. Absorbance was then measured at 495 nm excitation and […] (with a 15 nm bandwidth) on a plate reader. Data was recorded and analyzed for $EC50$. […] ELISA measurements were conducted using cynomolgus monkey (Macaca fascicularis) TfR1 (cTfR1) according to the same protocol described above for hTfR1, and results are shown in FIGS. 9B, 9D, and 9F.

| EC50 | Binder |
| --- | --- |
| > 100 nM | B3 |
| > 100 nM | B4 |
| 2.3 nM | B1 |
| 1.9 nM | B2 |

Target: T2, recombinant human TfR1 (transferrin …)
Experiment: ELISA on hTfR1, unconjugated Fab, % normalized RFUs

| EC50 | Binder |
| --- | --- |
| 7.2 nM | B5 |

Target: T1, recombinant cynomolgus monkey (Macaca …)
Experiment: Table 14, unconjugated Fab, d9 (after 9 days at 40 C); method not named

| Binding affinity | Binder |
| --- | --- |
| 0.26 nM | B3 |
| 0.69 nM | B4 |
| 128 nM | B1 |
| 248 nM | B2 |
| 19.5 nM | B5 |

Target: T2, recombinant human TfR1 (transferrin …)
Experiment: as above

| Binding affinity | Binder |
| --- | --- |
| 1730 nM | B3 |
| 71.9 nM | B4 |
| 0.4 nM | B1 |
| 0.65 nM | B2 |
| 0.98 nM | B5 |

Target: T2, recombinant human TfR1 (transferrin …)
Experiment: Biacore, d25; TfR1 species not stated

| Kd | Binder |
| --- | --- |
| 1.33 nM | B3 |
| 1.07 nM | B4 |
| 3.01 nM | B1 |
| 1.39 nM | B2 |
| 0.567 nM | B5 |

Target: T2, recombinant human TfR1 (transferrin …)
Experiment: ELISA on plate-coated recombinant hTfR1, fluorescent anti-(H+L) IgG-A488 detection, % normalized RFUs
Remark: another data set of the same source
Protocol: as §1, with “Absorbance was then measured at 495 nm excitation and 50 nm emission (with a 15 nm bandwidth) on a plate reader.” left out

| EC50 | Binder |
| --- | --- |
| 7.2 nM | B5 |

Target: T1, recombinant cynomolgus monkey (Macaca …)
Experiment: ELISA, recombinant TfR1 coated, unconjugated Fab (row 'Fab binding affinity ELISA')

| EC50 | Binder |
| --- | --- |
| 3.3 nM | B3 |
| 2.1 nM | B4 |
| 156 nM | B1 |
| 398 nM | B2 |
| 9.9 nM | B5 |

Target: T2, recombinant human TfR1 (transferrin …)
Experiment: as above

| EC50 | Binder |
| --- | --- |
| 2.8 nM | B3 |
| 6.3 nM | B4 |
| 2.6 nM | B1 |
| 1.6 nM | B2 |
| 0.8 nM | B5 |

Target: T1, recombinant cynomolgus monkey (Macaca …)
Experiment: ELISA on cTfR1, unconjugated Fab, % normalized RFUs

| EC50 | Binder |
| --- | --- |
| 25.5 nM | B5 |

Target: T2, recombinant human TfR1 (transferrin …)
Experiment: kinetic analysis (Biacore), Table 7; TfR1 species not stated

| Kd | koff | kon | Binder |
| --- | --- | --- | --- |
| 0.626 nM | 0.000117 s⁻¹ | 186000 M⁻¹ s⁻¹ | B3 |
| 0.627 nM | 0.000122 s⁻¹ | 195000 M⁻¹ s⁻¹ | B4 |
| 3.09 nM | 0.000705 s⁻¹ | 228000 M⁻¹ s⁻¹ | B1 |
| 1.34 nM | – | – | B2 |
| 0.395 nM | 0.000104 s⁻¹ | 264000 M⁻¹ s⁻¹ | B5 |

Target: T1, recombinant cynomolgus monkey (Macaca …)
Experiment: ELISA on cTfR1, unconjugated Fab, % normalized RFUs
Remark: another data set of the same source

| EC50 | Binder |
| --- | --- |
| 3.4 nM | B3 |
| 2 nM | B4 |

Target: T1, recombinant cynomolgus monkey (Macaca …)
Experiment: ELISA on plate-coated recombinant cTfR1 (target per paragraph 617), fluorescent anti-(H+L) IgG-A488 detection, % normalized RFUs
Protocol: as §1

| EC50 | Binder |
| --- | --- |
| 3.4 nM | B3 |
| 2 nM | B4 |

Target: T2, recombinant human TfR1 (transferrin …)
Experiment: Biacore, d0; TfR1 species not stated

| Kd | Binder |
| --- | --- |
| 0.626 nM | B3 |
| 0.627 nM | B4 |
| 3.09 nM | B1 |
| 1.34 nM | B2 |
| 0.395 nM | B5 |

Target: T2, recombinant human TfR1 (transferrin …)
Experiment: ELISA on hTfR1, unconjugated Fab, % normalized RFUs
Remark: another data set of the same source

| EC50 | Binder |
| --- | --- |
| > 100 nM | B3 |
| > 100 nM | B4 |

Target: T1, recombinant cynomolgus monkey (Macaca …)
Experiment: ELISA on plate-coated recombinant cTfR1, fluorescent anti-(H+L) IgG-A488 detection, % normalized RFUs
Remark: another data set of the same source
Protocol: as §1, with “Absorbance was then measured at 495 nm excitation and 50 nm emission (with a 15 nm bandwidth) on a plate reader.” left out

| EC50 | Binder |
| --- | --- |
| 25.5 nM | B5 |

Target: T1, recombinant cynomolgus monkey (Macaca …)
Experiment: ELISA on cTfR1, unconjugated Fab, % normalized RFUs
Remark: another data set of the same source

| EC50 | Binder |
| --- | --- |
| > 100 nM | B1 |
| > 100 nM | B2 |

Target: T1, recombinant cynomolgus monkey (Macaca …)
Experiment: Table 14, unconjugated Fab, d0; method not named (values equal ELISA row of Table 13)

| Binding affinity | Binder |
| --- | --- |
| 3.3 nM | B3 |
| 2.1 nM | B4 |
| 156 nM | B1 |
| 398 nM | B2 |
| 9.9 nM | B5 |

Target: T2, recombinant human TfR1 (transferrin …)
Experiment: as above

| Binding affinity | Binder |
| --- | --- |
| 2.8 nM | B3 |
| 6.3 nM | B4 |
| 2.6 nM | B1 |
| 1.6 nM | B2 |
| 0.8 nM | B5 |

Target: T2, recombinant human TfR1 (transferrin …)
Experiment: ELISA on hTfR1, unconjugated Fab, % normalized RFUs
Remark: another data set of the same source

| EC50 | Binder |
| --- | --- |
| 2.3 nM | B1 |
| 1.9 nM | B2 |
